Test results reported in patent US20040019926A1 (CROPDESIGN N V, published 2004).

T1: full-length rice OsICK2 protein (Oryza sativa, UniProt A2X9W8 1-262)
T1 construct: The Gal4 parts are not written into the chain; Form 'mature' here means the full-length protein; also called Os2
T1 sequence: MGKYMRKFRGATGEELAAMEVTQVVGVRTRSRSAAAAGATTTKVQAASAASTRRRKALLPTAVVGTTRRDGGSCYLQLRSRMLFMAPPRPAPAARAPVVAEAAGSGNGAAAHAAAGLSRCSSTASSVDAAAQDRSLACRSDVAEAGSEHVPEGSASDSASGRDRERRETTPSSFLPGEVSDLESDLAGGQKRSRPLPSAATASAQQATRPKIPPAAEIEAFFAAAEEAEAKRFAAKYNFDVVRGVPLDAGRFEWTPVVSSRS


Columns and labels:
[1] = target: T1, full-length rice OsICK2 protein; assay: yeast two-hybrid, OsICK2 in prey pADGal4 with empty pBDGal4
Description: (§1) The interactions of OsICK2 and OsICK4 with Cdc2-Os1 and CycD3-Os (the rice cyclin D3) were verified using a yeast two hybrid approach. In a preliminary step, yeast strain PJ69-4A (MATa trp1-901 leu2-3,112 ura3-52 his3-200 gal4(deleted) gal80(deleted) LYS2::GAL1-HIS3 GAL2-ADE2 met2::GAL7-lacZ) was transformed with Cdc2-Os1 in bait vector pBDGal4 (Stratagene), using the lithium acetate method, well known to those skilled in the art. The rice Cdc2-Os1 was previously obtained by PCR as described in Example 1. The Cdc2-Os1 was also cloned in the pADGal4 prey vector. The junctions between the pBDGal4 binding domain and the pADGal4 activation domain and the Cdc2-Os1 fragment were sequenced to verify correct in-frame fusion.
(§2) Two putative positive clones were identified. A second round of screening on these clones was performed. Pure positive plaques were isolated and phagemids were excised therefrom. Sequencing of the two clones reveiled that the clones were identical with a full length size of 1.7 kb. The clones contain an ORF of 1140 bp encoding a protein of 380 amino acids. This protein is designated cyclin D3 from rice (CycD3-Os). […]
(§3) As positive controls, growth was assessed in yeast containing the prey vector pADGal4 with Cdc2-Os1 and retransformed with the bait vector pBDGal4 containing OsICK2 or CycD3-Os. […]

[2] = target: T2, rice cyclin-dependent kinase Cdc2-Os1 (rice, UniProt P29618 1-294); assay: yeast two-hybrid, Cdc2-Os1 in prey pADGal4 with empty pBDGal4
T2 construct: The Gal4 parts are not written into the chain
T2 sequence (P29618 whole entry, the tested form may be a part): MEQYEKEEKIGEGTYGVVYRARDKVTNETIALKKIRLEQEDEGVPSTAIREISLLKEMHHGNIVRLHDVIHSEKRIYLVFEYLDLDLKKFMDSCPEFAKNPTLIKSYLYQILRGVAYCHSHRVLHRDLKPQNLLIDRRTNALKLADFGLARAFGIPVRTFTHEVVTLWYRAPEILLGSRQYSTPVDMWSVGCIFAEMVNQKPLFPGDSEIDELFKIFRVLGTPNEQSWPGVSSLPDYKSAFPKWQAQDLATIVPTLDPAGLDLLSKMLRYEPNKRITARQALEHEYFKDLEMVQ
Description: as §1, §2, §3

[3] = target: T2, rice cyclin-dependent kinase Cdc2-Os1; assay: yeast two-hybrid, Cdc2-Os1 in bait pBDGal4 with empty prey pADGal4
Description: as §1, §2, §3

[4] = target: T1, full-length rice OsICK2 protein; assay: yeast two-hybrid, OsICK2 in bait pBDGal4 with empty prey pADGal4
Description: as §1, §2, §3

Binder | binding result [1] | binding result [2] | binding result [3] | binding result [4]
empty pBDGal4 vector (Gal4 binding domain alone) (other, UniProt P04386 1-148, looked up, Negative control in the yeast two-hybrid assay) MKLLSSIEQACDICRLKKLKCSKEKPKCAKCLKNNWECRYSPKTKRSPLTRAHLTEVESRLERLEQLFLLIFPREDLDMILKMDSLQDIKALLTGLFVQDNVNKDAVTDRLASVETDMPLTLRQHRISATSSSEESSNKGQRQLTVSI | no binding | no binding |  | 
empty prey pADGal4 vector (Gal4 activation domain alone) (other, UniProt P04386 761-881, looked up, Negative control in the yeast two-hybrid assay) PSALFGGANFNQSGNIADSSLSFTFTNSSNGPNLITTQTNSQALSQPIASSNVHDNFMNNEITASKIDDGNNSKPLSPGWTDQTAYNAFGITTGMFNTTTMDDVYNYLFDDEDTPPNPKKE |  |  | no binding | no binding
